# Laboratory results published in patent US20110311507.
# Substitutions are numbered along the chain they refer to. Names and notes keep the numbering of the source.
# T1: V5-tagged wild type murine Siae (UniProt P70665)
# T1 sequence: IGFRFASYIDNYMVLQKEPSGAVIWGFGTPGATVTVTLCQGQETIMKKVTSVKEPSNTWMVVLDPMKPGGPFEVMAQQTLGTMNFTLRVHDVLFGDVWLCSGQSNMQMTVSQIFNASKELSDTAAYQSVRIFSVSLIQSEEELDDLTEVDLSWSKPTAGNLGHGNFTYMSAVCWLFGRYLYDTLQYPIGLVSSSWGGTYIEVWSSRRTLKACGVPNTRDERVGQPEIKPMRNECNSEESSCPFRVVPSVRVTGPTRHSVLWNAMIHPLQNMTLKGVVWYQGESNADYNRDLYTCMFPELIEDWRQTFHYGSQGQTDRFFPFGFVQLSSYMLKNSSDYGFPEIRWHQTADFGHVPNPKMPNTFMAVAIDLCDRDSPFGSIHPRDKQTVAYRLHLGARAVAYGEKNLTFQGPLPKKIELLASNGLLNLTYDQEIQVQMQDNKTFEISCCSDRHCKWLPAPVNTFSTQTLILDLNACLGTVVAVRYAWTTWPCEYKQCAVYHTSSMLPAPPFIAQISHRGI
# T2: V5-tagged wild type murine Siae, P70665
# T2 chain: T1 sequence
# B1: FLAG-tagged murine C196F SIAE (protein)
# chain: T1 sequence with C173F
# B2: FLAG-tagged murine G212R Siae (protein)
# chain: T1 sequence with G189R
# What was measured:
# [1] = molecular target: T1, V5-tagged wild type murine Siae
# [2] = molecular target: T2, V5-tagged wild type murine Siae, P70665
molecule,measurement,setting,value
FLAG-tagged murine T338M SIAE,"enzyme activity of V5 tagged wild type SIAE in co-transfectants, as a function of its protein level",[1],function in a dominant interfering fashion
FLAG-tagged murine Y375C Siae,"enzyme activity of V5-tagged wild type Siae in co-transfectants, as a function of its protein level",[1],function in a dominant interfering fashion
FLAG-tagged murine F430S Siae,"enzyme activity of V5-tagged wild type Siae in co-transfectants, as a function of its protein level",[1],function in a dominant interfering fashion
FLAG-tagged murine Q335P SIAE,"enzyme activity of V5 tagged wild type SIAE in co-transfectants, as a function of its protein level",[1],function in a dominant interfering fashion
FLAG-tagged murine R505C Siae,"enzyme activity of V5-tagged wild type Siae in co-transfectants, as a function of its protein level",[1],function in a dominant interfering fashion
FLAG-tagged K426N Siae,"enzyme activity of V5-tagged WT Siae in co-transfectants, as a function of its protein level",[1],lacks dominant negative activity
B1,"enzyme activity of V5 tagged wild type SIAE in co-transfectants, as a function of its protein level",[2],function in a dominant interfering fashion
B2,"enzyme activity of V5-tagged wild type Siae in co-transfectants, as a function of its protein level",[2],function in a dominant interfering fashion
